± gives the uncertainty stated by the source.
Assay: amyloid nucleation score (Sup35N fusion, yeast selection) (log enrichment); library NNK1; higher = more nucleation; inactive = no reads after selection
Outline: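 Libraries of peptides of 20 random codons fused to Sup35N were expressed in psi-negative yeast and induced 24 hours with 100 μM copper sulfate. Selection was 7 days at 30°C on medium lacking adenine and uracil, and plasmid inserts were Illumina-sequenced before and after selection. Nucleation score is the DiMSum log enrichment of output over input reads, centred on the mode score of non-aggregating sequences, and sequences with under 100 input reads were left out.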

Row | Substance | amyloid nucleation score
1 | FSCSVDLKSSHMEVARNGYP | inactive
2 | FSFYLYGGSC | -1.47 ± 2.4
3 | FSGHFNARGFSDSWYVCMIG | -0.855 ± 1.6
4 | FSGLDYNVYVNLVPYFLCIN | 6.34 ± 0.077
5 | FSGVMLVEWLTSPRHLRRAL | 0.678 ± 1.1
6 | FSILILRHCVDLRYRVTSTM | 0.446 ± 0.6
7 | FSITLTPHRGSVMNIYTANV | 1.59 ± 0.17
8 | FSMVLSSTMDLRRELLWNSV | -0.299 ± 0.73
9 | FSREYL | -0.251 ± 0.3
10 | FSSCVNDFLGGRPPSKVLSF | 0.068 ± 0.48
11 | FSVARFGWFLVSALLQGWDR | -0.142 ± 0.55
12 | FSVMKCWPSPRPVNRFLIYA | -0.706 ± 0.46
13 | FSYNVVLRFSLRISSNYFAS | -1.12 ± 0.86
14 | FTAKSL | -0.324 ± 0.38
15 | FTFFRRW | inactive
16 | FTFSTGLLFYMFLYGWVH | -0.62 ± 0.34
17 | FTFYYCIRY | 0.673 ± 0.47
18 | FTMYKCMCSMGRRNSAGGAS | -0.325 ± 0.98
19 | FTNKFCFL | 0.069 ± 0.35
20 | FTRQLWYMSICRYFQLPTFY | 1.95 ± 0.56
21 | FTVGYGSYGLT | 0.306 ± 0.54
22 | FTYRGYSDQLMVSLLSLLSE | 1.68 ± 0.48
23 | FTYSLFCAYI | 1.18 ± 0.66
24 | FVCSVFKSYCKSRVFFARAT | -0.025 ± 0.28
25 | FVGFDCYNSVSCCFTMRVSE | 4.02 ± 0.065

Row | Substance | amyloid nucleation score
26 | FVGIQHRMSYWLCGRHAIVI | 0.965 ± 0.71
27 | FVGQRKLLLKEEAQGFLQCK | -0.707 ± 1.2
28 | FVGTKQWMARGLVNDVKPVH | -0.161 ± 0.45
29 | FVKVLDFYLMLSCHTICLFG | -0.832 ± 1.5
30 | FVLCFFLACGITRNGMPCMV | 1.26 ± 0.76
31 | FVLLNLPLVKRVCRIVGYWG | -0.327 ± 0.51
32 | FVLSIFYIWGKSPSRTYWMN | -0.322 ± 0.74
33 | FVNIADDRRVYLILSVHGDL | 6.575 ± 0.05
34 | FVPIF | -0.208 ± 0.72
35 | FVPLTVN | -0.068 ± 0.28
36 | FVRSFYSDKLWQIFGWVVGS | -0.753 ± 0.51
37 | FVRVLTFPYPMNVFIRLSLA | inactive
38 | FVTNTWRVTVCPSQLFGILR | inactive
39 | FVWIWYCPIYHCEVLARSPR | -0.614 ± 0.83
40 | FVYDFNGKKFLGLSCALYII | 0.22 ± 1.2
41 | FVYFTGIMIC | -0.46 ± 1
42 | FWHPLG | -0.342 ± 0.28
43 | FWLIHGMIQMGYVK | -0.458 ± 1.2
44 | FWLNLPAWISFAMFVCIVYV | -0.132 ± 0.47
45 | FWNFRVIC | 0.259 ± 1.4
46 | FWPFHDDLDVVSAFCYIRIL | -0.707 ± 0.82
47 | FWPNRLR | 0.169 ± 0.56
48 | FWRKENGYWLGFMPLVREGT | 0.247 ± 0.35
49 | FWRNEVMLSCVGTAMARRVF | 0.398 ± 0.37
50 | FWSLRMLMLADSSDKCVDYC | inactive

Row | Substance | amyloid nucleation score
51 | FWSYSMP | inactive
52 | FWVRSGCVSMYGPRRVALEV | -0.003 ± 0.43
53 | FYFLKDY | -0.763 ± 0.3
54 | FYGCFRVHCVISMLGWR | 0.109 ± 0.36
55 | FYGMDLSVSRFF | 0.031 ± 0.47
56 | FYIVCRNFKTYLPSLGF | -1.12 ± 2.4
57 | FYKTL | -1.19 ± 1.2
58 | FYPLVTFFVLHHGNMNIHRV | 6.778 ± 0.066
59 | FYPYN | 0.743 ± 0.79
60 | FYSFWMGRTCMFIVTRVNSA | -0.091 ± 0.31
61 | FYSMSGWYSTVKGVCIRTLT | 1.02 ± 0.35
62 | FYTISFLAIIATENIFCSSS | 4.42 ± 0.053
63 | FYVMSMLIM | 0.029 ± 0.47
64 | FYYGSVSLSWF | inactive
65 | GAFEGVFHRVMSDGRGAFAR | -0.289 ± 0.42
66 | GAFRVVSQHRASDVS | -0.116 ± 0.41
67 | GAKEDERSNWSVVNMLGREL | -0.341 ± 0.39
68 | GAKFSTVSRENDDMHFAWLW | 1.19 ± 0.97
69 | GARVTLYAVS | -0.475 ± 0.36
70 | GCGFSWSLCGESPYAVRPVA | 0.538 ± 0.55
71 | GCKGGSATCSTRTWMCSWGG | 2.27 ± 0.12
72 | GCTGPHFVYTDGRMHWSGSS | -0.529 ± 0.49
73 | GCTRNCSKCKGMHSQRHPYP | -0.837 ± 2.4
74 | GDDLQFT | 1.88 ± 0.69
75 | GDLSLRLLG | 0.419 ± 0.66

Row | Substance | amyloid nucleation score
76 | GDSMV | -0.606 ± 0.4
77 | GDYSCPLGNIINHDPMLFRW | 0.107 ± 0.23
78 | GEGICL | -0.012 ± 1.1
79 | GERGQFTILISYMALRDRLM | 2.45 ± 0.13
80 | GEYRDGFSLRVMGLHGSLNH | 1.07 ± 0.58
81 | GFCLVVLGYCFYMFYATNNS | 0.042 ± 0.9
82 | GFNDGVVR | 0.874 ± 0.55
83 | GFNKR | -0.991 ± 2.4
84 | GFPRCVWFNSSVIQESSFFV | 0.571 ± 1.2
85 | GFSILAPSKYVVNYWMHPQS | 7.691 ± 0.049
86 | GFSIYRCHYFSGRMVTNVSM | -0.475 ± 1.7
87 | GFTDYNRVRYKVLTVVFDYG | -1.51 ± 0.95
88 | GFTYTC | -0.915 ± 1.1
89 | GFVGYNCLCFCKSVA | -1.05 ± 0.84
90 | GFWQLFLRVIPLFSVGYSNC | 0.875 ± 0.69
91 | GFYGRICL | 0.101 ± 0.46
92 | GGAQMVHTSQSRCAARGV | -0.831 ± 0.7
93 | GGGSMAGAERPGGLGQVRCN | 1.2 ± 0.6
94 | GGMIAIKHKFIYYDLELWGY | -0.94 ± 0.43
95 | GGMLQLSSSDFTRWAQEWSI | 0.355 ± 0.73
96 | GGNDHVANLTCNNVAGSRGT | 4.33 ± 0.14
97 | GGPVREYTRMSPSVGVLDEA | 0.489 ± 0.86
98 | GGSMGHPGTLMERSYNLVVA | 0.951 ± 0.46
99 | GGSVRRDQMVYREDMQSNST | -0.746 ± 0.93
100 | GGSYKEYTLCKHTAP | 0.506 ± 0.67

Row | Substance | amyloid nucleation score
101 | GGTSRLQDVDAALTGTWVSP | 0.042 ± 0.37
102 | GGWDAGGGHAIRRIVECMVR | 0.601 ± 1.1
103 | GGYGERRDVVVDRSYTVDTG | 0.071 ± 0.62
104 | GGYGSIECFRSLVREKCCSV | 0.086 ± 0.62
105 | GGYMGL | -0.158 ± 0.35
106 | GGYVLPYSLFFGVPSIAFVG | 0.602 ± 0.7
107 | GHKNTRILQV | -0.444 ± 1.9
108 | GHLQGPLSTLIHDW | 0.564 ± 0.47
109 | GHSFGTVTDCVANQYNFLNI | 2.37 ± 0.19
110 | GHSRRLYCGLEAGARCGFSR | -0.455 ± 1.5
111 | GHTRR | -0.062 ± 0.41
112 | GHWLRQVSRRLVPADDCMVQ | inactive
113 | GIAWALKLRLVDAYPGMSMS | 0.168 ± 0.72
114 | GICLIAVVRGLIERGNGETE | 0.206 ± 1.1
115 | GIDTKDFFVAGMLGCVEGMD | 0.245 ± 0.7
116 | GIGAGYKFNDTVFSEGCSSG | 0.653 ± 0.93
117 | GIISFANRQSF | 7.944 ± 0.044
118 | GILMVELWSRR | 2.56 ± 0.18
119 | GIRSLFGGKCWDHGSFMWKF | -0.195 ± 0.54
120 | GISFWSLGC | 1.07 ± 0.84
121 | GITIITFIDGSLLGRDFPCW | 2.14 ± 0.26
122 | GIVSAESWSLLQDRHFGAVK | 0.578 ± 0.55
123 | GIWPLGFGKFGSIFRFANVR | 0.939 ± 0.6
124 | GKFSKDKILLVSYHKAF | 0.886 ± 0.39
125 | GKHLTRNAWGRLSLVTDCVR | 0.486 ± 0.5

Row | Substance | amyloid nucleation score
126 | GKKTRRLYVKWSSSFLNWMK | 0.28 ± 0.85
127 | GKLDCVKVLNVHCP | 0.527 ± 0.61
128 | GKNFYREDAVSVCRWL | 0.342 ± 0.64
129 | GKPVDRLS | 0.066 ± 0.28
130 | GKSEVLTFGEGAHVGRSRFY | 0.367 ± 0.46
131 | GKWFVKRGRIRSAENCIRLF | -0.785 ± 1.1
132 | GLACYM | 0.413 ± 0.4
133 | GLCNGCIFWRVKRIKGLKWF | -0.381 ± 0.22
134 | GLGGYT | -0.155 ± 0.49
135 | GLGVVPITAERRVSLRYSEC | -0.242 ± 0.35
136 | GLICNIDVRMRFVFMVRGSP | 2.45 ± 0.21
137 | GLLETYDWAVQWTGHLEC | 0.168 ± 0.89
138 | GLLIFMITTLPFCFWCTVPR | inactive
139 | GLLMISISYLITRMVFMDNI | 0.412 ± 0.39
140 | GLMDRRTFITICVYPFMESW | 4.37 ± 0.071
141 | GLRVLFGLLGVCPCRDSQWG | inactive
142 | GLSGSLSSVIYSSEVRSR | 0.036 ± 0.29
143 | GLTGLTLWARATRRRVGTLS | -0.153 ± 0.59
144 | GLTWKTFPSCPMSENNCIRH | 0.133 ± 0.79
145 | GLVHMPGHLRVLRQLLSA | 0.377 ± 0.56
146 | GLWFVC | 0.374 ± 0.75
147 | GLWQWAIHLRWIGIEHTQTR | 0.295 ± 0.97
148 | GLYTLSHHGCNAQGWVRDGS | 0.324 ± 0.45
149 | GMAVNGYHSLRGKVLEDVGN | -0.289 ± 0.79
150 | GMCIRNRMRDNVNSLSSACD | 0.362 ± 1.4

Row | Substance | amyloid nucleation score
151 | GMHLNCHGCILSSV | -0.021 ± 0.77
152 | GMSCWGLCSYNTRAYRNNPT | -0.151 ± 0.63
153 | GMSPPSNSFFSFCFTGLVKF | 0.319 ± 0.61
154 | GMYPGESSWKLEKEVIL | 0.539 ± 0.6
155 | GNFHQPFFLMVVFQHARAPL | 6.291 ± 0.054
156 | GNIDGICERSCNRFANYIQG | 1.11 ± 0.49
157 | GNSRQYAFNRQIHMSSGESR | -0.535 ± 0.66
158 | GNWASIWPLGFELLSYICQE | -0.866 ± 0.49
159 | GNYNSPFFRGSVNWNWCM | 0.485 ± 1.2
160 | GNYVVVVGYN | 0.326 ± 0.5
161 | GPDNVCCGSRPKISDVGYGM | inactive
162 | GPFIVIPK | -0.149 ± 0.64
163 | GPHLIKVCFSEPMGFKVFLL | 2.12 ± 0.14
164 | GPNTPSWYGCL | 0.196 ± 0.6
165 | GPPRN | 0.681 ± 0.65
166 | GPRFNVALES | -0.347 ± 0.38
167 | GPRHYKVFHSYSAFGGYSVC | 1.01 ± 0.81
168 | GPSLFG | 0.121 ± 0.37
169 | GPVRQHCYCDMTTVFRILGA | -1.55 ± 1.4
170 | GPWAGVRVRSTCLVRYSWYG | 0.242 ± 0.44
171 | GQPVFSLDCIYYLLYCFDAT | 0.595 ± 0.6
172 | GQRLLL | 1.07 ± 0.56
173 | GQTLALSYFTVLFSPMLNEW | 0.169 ± 1

Source: the supplement of paper PMC12042874
